Measured values published in patent US20210087288A1 (Genentech, published 2021).
Substitutions are numbered along the chain they refer to. Names and notes keep the numbering of the source. Values joined by “and” are separate entries in the source; they are usually repeats but may differ in a detail not shown here. Equal values may be shown once.

B1: hu7A4.v5 (antibody, V domains shown)
VH: EVQLVQSGAEVKKPGASVKVSCKASGYTFTDYAMHWVRQAPGQGLEWMGGISTYFGRTNYNQKFKGRVTMTRDTSISTAYMELSRLRSDDTAVYYCARGLSGNYVMDYWGQGTTVTVSS
VL: DIVMTQSPDSLAVSLGERATINCRASESVDSYGNSFMHWYQQKPGQPPKLLIYRASNLESGIPDRFSGSGSGTDFTLTISSLQAEDVAVYYCQQSNEGPPTFGQGTKLEIK
B2: hu7A4.v8 (antibody, V domains shown)
VH: B1 VH with A24G, R72V
VL: B1 VL
B3: Hu15G11.HC32A Fab (Fab, V domains shown)
VH: EVQLVQSGAEVKKPGASVKVSCKASGYTFTSAWMHWVRQAPGQRLEWIGEINPTNGRTNYIEKFKSRATLTVDKSASTAYMELSSLRSEDTAVYYCARGTRAYHYWGQGTMVTVSS
VL: DIQMTQSPSSLSASVGDRVTITCRASDNLYSNLAWYQQKPGKSPKLLVYDATNLADGVPSRFSGSGSGTDYTLTISSLQPEDFATYYCQHFWGTPLTFGQGTKVEIK
notes: Purified Fab; also called Y32A Fab
B4: Hu15G11.HC52A Fab (Fab, V domains shown)
VH: B3 VH with A32Y, N52A
VL: B3 VL
notes: Purified Fab; also called N52A Fab
B5: hu16F6.v2 (antibody, V domains shown)
VH: EVQLVESGPGLVKPSETLSLTCTVSGNSITSEYAWNWIRQPPGKGLEWIGYISYSGTTSYNPSLKSRVTISRDTSKNQLSLKLSSVTAADTAVYYCARYGYGNPATRYFDVWGQGTLVTVSS
VL: DIQMTQSPSSLSASVGDRVTITCRASKSISKYLAWYQQKPGKAPKLLLYSGSTLQSGVPSRFSGSGSGTDYTLTISSLQPEDFATYYCQQHNEYPWTFGQGTKVEIK

Assays:
[1] = molecular target: T1, Cyno TfR extracellular domain (analogous ecd construct) (cynomolgus monkey, UniProt Q5RDH6 87-760 (Pongo abelii entry)); assay: SPR (Biacore), IgG, TfR captured by anti-His
T1 construct: it is not expressly said to be the cyno construct; also called purified cyno TfR
T1 chain: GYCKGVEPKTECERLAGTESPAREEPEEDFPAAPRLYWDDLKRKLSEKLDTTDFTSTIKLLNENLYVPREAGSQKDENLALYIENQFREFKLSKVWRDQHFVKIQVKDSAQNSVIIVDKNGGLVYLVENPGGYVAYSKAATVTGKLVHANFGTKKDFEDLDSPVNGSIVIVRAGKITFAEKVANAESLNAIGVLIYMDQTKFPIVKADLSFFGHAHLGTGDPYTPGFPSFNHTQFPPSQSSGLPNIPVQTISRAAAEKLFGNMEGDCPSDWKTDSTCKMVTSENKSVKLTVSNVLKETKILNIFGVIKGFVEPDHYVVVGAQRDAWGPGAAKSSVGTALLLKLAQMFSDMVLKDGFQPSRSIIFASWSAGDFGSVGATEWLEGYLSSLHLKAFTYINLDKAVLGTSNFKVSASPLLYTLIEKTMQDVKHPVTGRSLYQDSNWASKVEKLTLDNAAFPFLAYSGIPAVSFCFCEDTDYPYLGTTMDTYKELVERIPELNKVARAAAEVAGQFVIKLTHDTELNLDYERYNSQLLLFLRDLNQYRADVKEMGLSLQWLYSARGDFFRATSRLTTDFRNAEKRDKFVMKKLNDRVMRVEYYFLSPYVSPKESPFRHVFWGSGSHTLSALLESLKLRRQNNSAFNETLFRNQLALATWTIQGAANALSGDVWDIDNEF
Method: (§1) Antibody affinities were measured using surface plasmon resonance (“SPR”) (Biacore™ GE Healthcare). Anti-His antibody (Qiagen) was coupled onto four different flow cells of a BIACORE™ CM5 sensor chip (Biacore, Inc., Piscataway, N.J.) at between 6000 and 8000 RU. Immobilization was achieved by random coupling through amino groups using a protocol provided by the manufacturer. 10×HBS-P (Biacore, Inc., Piscataway, N.J.) was diluted in water and served as the dilution and running buffer. Purified human or cyno TfR was captured, followed by a 3-fold dilution series of IgG or Fab that was injected at a flow rate of […] using the single cycle kinetics method. Affinity constants were determined using a simple 1:1 Langmuir binding model or using a steady state model when kₒₙ or koff was beyond the detection limit. The equilibrium dissociation constant (KD) was calculated as the ratio of […].
(§2) The affinity of humanized variants for human and cyno TfR was determined by SPR as IgG (FIG. 4E). Selected clones were also analyzed by SPR as Fab to assess monovalent affinity (Table 7). In both cases, the SPR experiments were performed as described above.

[2] = molecular target: T1, Cyno TfR extracellular domain …; assay: ratio of KD on cyno TfR to KD on human TfR, SPR
Method: as §1, §2

[3] = molecular target: T1, Cyno TfR extracellular domain …; assay: SPR, captured His-TfR, Fab analyte
Method: as §1, §2

[4] = molecular target: T2, Human TfR extracellular domain (ecd) containing an N-terminal His tag (human, UniProt P02786 89-760); assay: SPR, captured His-TfR, Fab analyte
T2 construct: Biotinylated in some ELISAs; also called huTfR; HuTfR
Method: as §1, §2

[5] = molecular target: T2, Human TfR extracellular domain (ecd) …; assay: SPR (Biacore), IgG, TfR captured by anti-His
Method: as §1, §2

Binder	Kd [1] [nM]	Cy/hu ratio [2]	koff [3] [s⁻¹]	kon [3] [M⁻¹ s⁻¹]	koff [4]	kon [4]	Kd [5] [nM]
B1	1.2	–	–	–	–	–	–
B2	12.3	–	–	–	–	–	–
B3	–	6.4	0.00851	177000	0.00178 s⁻¹	238000 M⁻¹ s⁻¹	–
B4	–	2.6	0.0567	487000	0.0236 s⁻¹ and 0.0196 s⁻¹	530000 M⁻¹ s⁻¹ and 564000 M⁻¹ s⁻¹	–
B5	68.1	–	–	–	–	–	4.25
